Data on 53 substances can be found in patent publication US20250011363A1, “OPTIMIZED SHORTENED PEPTIDE THAT BINDS TO ACETYLCHOLINE RECEPTOR, AND USE THEREOF” (SKINMED CO., LTD., priority 2021, published 2025).

This assay has as its target acetylcholine receptor (Homo sapiens, UniProt P02708). The assay can be described thus: SPR binding affinity (RU) of optimized 5mer/6mer/7mer peptides, Examples 6-7. The settings on record: SPR, Resonance Units; peptides tested at 10 μM; 6mer-1 Bottom sequence. Put shortly: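 Peptides were tested at 10 μM by surface plasmon resonance against the receptor, with binding reported as response units. Library sequences were built from frequent (top) or infrequent (bottom) amino acid combinations in 5mer, 6mer-1 and 6mer-2 series.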
In general terms: In SPR one partner is held on a chip, and binding of the other changes the refractive index at the surface.

Sequence of acetylcholine receptor (P02708 21-457): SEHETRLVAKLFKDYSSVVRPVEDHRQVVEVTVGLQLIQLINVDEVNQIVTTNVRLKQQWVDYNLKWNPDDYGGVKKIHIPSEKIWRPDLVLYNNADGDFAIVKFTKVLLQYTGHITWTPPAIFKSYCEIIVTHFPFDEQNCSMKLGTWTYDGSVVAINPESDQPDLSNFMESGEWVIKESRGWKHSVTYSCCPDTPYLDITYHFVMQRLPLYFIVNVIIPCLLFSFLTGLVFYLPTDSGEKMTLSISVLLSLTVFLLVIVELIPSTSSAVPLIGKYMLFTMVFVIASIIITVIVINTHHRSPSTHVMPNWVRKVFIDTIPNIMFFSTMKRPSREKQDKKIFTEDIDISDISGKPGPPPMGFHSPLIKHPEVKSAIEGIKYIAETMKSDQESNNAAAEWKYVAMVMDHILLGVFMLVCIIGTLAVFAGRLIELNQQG

For the substance 6mer-1-1143 (KRHEFK), the Binding affinity is 32 Ru.

Regarding 6mer-1-1144 (KKCMGR), the Binding affinity is listed as 25 Ru.

With 6mer-1-1145 (RRDCKK), the Binding affinity is 40 Ru.

In the case of 6mer-1-1146 (KKMMPK), the Binding affinity is listed as 34 Ru.

For the substance 6mer-1-1147 (RKAPHR), the Binding affinity is recorded as 35 Ru.

6mer-1-1148 (RRCSHR): the Binding affinity amounted to 31 Ru.

As for 6mer-1-1149 (RKMTPK), the Binding affinity came to 30 Ru.

6mer-1-1150 (KRKWWR): the Binding affinity is listed as 34 Ru.

As to 6mer-1-1151 (KKKEAK), the Binding affinity was 34 Ru.

Take 6mer-1-1152 (RKYKEK): the Binding affinity is listed as 23 Ru.

Regarding 6mer-1-1153 (RKHNKK), the Binding affinity amounted to 23 Ru.

As to 6mer-1-1154 (RKCEKR), the Binding affinity was 41 Ru.

For 6mer-1-1155 (RKKEKR), the Binding affinity is listed as 28 Ru.

With 6mer-1-1156 (KRYTVR), the Binding affinity is listed as 37 Ru.

With 6mer-1-1157 (RKESVR), the Binding affinity is given as 36 Ru.

On to 6mer-1-1158 (RKPMMK), for which the Binding affinity was determined as 33 Ru.

As to 6mer-1-1159 (RRAWPR), the Binding affinity stood at 39 Ru.

As to 6mer-1-1160 (RRDWAK), the Binding affinity is 29 Ru.

In the case of 6mer-1-1161 (KRHWVK), the Binding affinity was 40 Ru.

In the case of 6mer-1-1162 (KKCDHR), the Binding affinity stood at 41 Ru.

On to 6mer-1-1163 (RKCAFK), for which the Binding affinity was 21 Ru.

On to 6mer-1-1164 (KKHHAK), for which the Binding affinity is 41 Ru.

Turning to 6mer-1-1165 (RRATWR), the Binding affinity was 29 Ru.

As for 6mer-1-1166 (KKEEKR), the Binding affinity is on record as 22 Ru.

With 6mer-1-1167 (KRHMMK), the Binding affinity came to 42 Ru.

On to 6mer-1-1168 (KKEKFR), for which the Binding affinity is reported as 40 Ru.

For the substance 6mer-1-1169 (RKMDIR), the Binding affinity was 32 Ru.

Consider 6mer-1-1170 (KKYNPK), for which the Binding affinity was determined as 25 Ru.

As to 6mer-1-1171 (RKIAFK), the Binding affinity is recorded as 40 Ru.

Regarding 6mer-1-1172 (RRFNFR), the Binding affinity amounted to 23 Ru.

6mer-1-1173 (KKIPMK): the Binding affinity worked out at 26 Ru.

On to 6mer-1-1174 (RKDAIR), for which the Binding affinity is listed as 30 Ru.

As for 6mer-1-1175 (RKTWEK), the Binding affinity is on record as 23 Ru.

On to 6mer-1-1176 (KKADHK), for which the Binding affinity was 21 Ru.

As to 6mer-1-1177 (RRHTMR), the Binding affinity came out at 21 Ru.

For the substance 6mer-1-1178 (RKKMAK), the Binding affinity worked out at 29 Ru.

6mer-1-1179 (KRMTPR): the Binding affinity turned out to be 40 Ru.

As to 6mer-1-1180 (KRPPPK), the Binding affinity worked out at 34 Ru.

In the case of 6mer-1-1181 (RRMDAK), the Binding affinity stood at 21 Ru.

As for 6mer-1-1182 (KKTCHR), the Binding affinity is 35 Ru.

Take 6mer-1-1183 (RKIHNK): the Binding affinity is on record as 35 Ru.

For 6mer-1-1184 (RRDTVK), the Binding affinity came to 30 Ru.

For the substance 6mer-1-1185 (KKEMMK), the Binding affinity worked out at 29 Ru.

As to 6mer-1-1186 (KKNNAK), the Binding affinity was determined as 37 Ru.

Turning to 6mer-1-1187 (RRHAHK), the Binding affinity is reported as 26 Ru.

As for 6mer-1-1188 (RRMNER), the Binding affinity is 41 Ru.

As for 6mer-1-1189 (KKCHWR), the Binding affinity was 40 Ru.

Take 6mer-1-1190 (KKCMKR): the Binding affinity was determined as 29 Ru.

With 6mer-1-1191 (RKYTKK), the Binding affinity was determined as 39 Ru.

Consider 6mer-1-1192 (RKDDDR), for which the Binding affinity amounted to 36 Ru.

In the case of 6mer-1-1193 (KKPTNK), the Binding affinity is listed as 33 Ru.

For 6mer-1-1194 (KKTHAK), the Binding affinity worked out at 22 Ru.

6mer-1-1195 (KRDEDK): the Binding affinity is reported as 25 Ru.
